Holding throughout (experiment): pull-down
The target of assay [1] is His-tagged, full-length, R50K point mutant GAP (UniProt Q62848 1-415, R50K).
In assay [2] the target is ARFGAP1, wild-type, 6x-his tagged, soluble (UniProt Q62848 1-415).
In assay [3] the target is point mutant GAP (R50K) as GST fusion protein (GST-R50K GAP) (UniProt Q62848 1-415, R50K).
Assay [4] deals with ARFGAP1 as a GST fusion protein (GST-ARFGAP1) (UniProt Q62848 1-415).
Sequence of ARFGAP1 as a GST fusion protein (GST-ARFGAP1) (Q62848 whole entry, the tested form may be a part): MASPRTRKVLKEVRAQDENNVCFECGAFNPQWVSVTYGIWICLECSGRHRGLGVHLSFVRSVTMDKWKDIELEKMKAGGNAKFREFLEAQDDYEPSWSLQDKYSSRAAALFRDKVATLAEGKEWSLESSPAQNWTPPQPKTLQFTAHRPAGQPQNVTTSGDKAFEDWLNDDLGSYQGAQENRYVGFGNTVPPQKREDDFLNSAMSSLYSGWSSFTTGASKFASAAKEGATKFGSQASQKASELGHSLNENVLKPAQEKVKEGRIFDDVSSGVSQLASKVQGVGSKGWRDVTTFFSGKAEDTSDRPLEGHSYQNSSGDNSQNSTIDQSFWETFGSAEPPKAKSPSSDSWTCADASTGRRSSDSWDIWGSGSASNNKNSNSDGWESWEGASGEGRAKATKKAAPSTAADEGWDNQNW

Sequence of ARFGAP1, wild-type, 6x-his tagged, soluble (Q62848 whole entry, the tested form may be a part): as above
Sequence of His-tagged, full-length, R50K point mutant GAP (Q62848 whole entry R50K): as the sequence (Q62848 whole entry, the tested form may be a part) above, with R50K counted along it
Sequence of point mutant GAP (R50K) as GST fusion protein (GST-R50K GAP) (Q62848 whole entry R50K, the tested form may be a part): as the sequence (Q62848 whole entry, the tested form may be a part) above, with R50K counted along it

KKLETFKKTN (domain or fragment) [GST-Wbp1 (cytoplasmic domain of Wbp1 fused to GST)]: the binding result in assay [1] and in assay [2] was “binds” in each case.

B1: ARF1, full-length myristoylated form (ADP ribosylation factor 1) (natural protein)
chain: not shown
modifications: myristoylated
Take B1: the binding result in assay [3] and in assay [4] was “binds” in each case.

The values above are taken from paper PMC2171589 (The Journal of Cell Biology, 2005).
